Measured values from patent publication US20230295289A1 (INTERVET, published 2023).

How the values were obtained:
[1] = target: canine IL-31RA ECD-10His (canine); assay: ELISA: IL-31RA ECD coated at 10 ug/mL, biotinylated IL-31 titrated 3-fold from 10 ug/mL, HRP-streptavidin
[2] = target: T1, cIL-22-His (canine IL-22 with a His Tag) (canine); assay: ELISA: cIL-22-His coated, Fc fusion titrated from 10 ug/mL, anti-dog IgG (Fc)-HRP
T1 construct: also called cILHIS
T1 chain: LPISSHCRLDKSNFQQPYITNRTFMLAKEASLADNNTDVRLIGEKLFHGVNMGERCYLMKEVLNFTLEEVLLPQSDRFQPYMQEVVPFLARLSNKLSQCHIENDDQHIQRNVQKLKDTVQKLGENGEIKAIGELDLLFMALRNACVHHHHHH

Sequence of canine IL-31RA ECD-10His (canine) (chain, as listed by the source limits assumed): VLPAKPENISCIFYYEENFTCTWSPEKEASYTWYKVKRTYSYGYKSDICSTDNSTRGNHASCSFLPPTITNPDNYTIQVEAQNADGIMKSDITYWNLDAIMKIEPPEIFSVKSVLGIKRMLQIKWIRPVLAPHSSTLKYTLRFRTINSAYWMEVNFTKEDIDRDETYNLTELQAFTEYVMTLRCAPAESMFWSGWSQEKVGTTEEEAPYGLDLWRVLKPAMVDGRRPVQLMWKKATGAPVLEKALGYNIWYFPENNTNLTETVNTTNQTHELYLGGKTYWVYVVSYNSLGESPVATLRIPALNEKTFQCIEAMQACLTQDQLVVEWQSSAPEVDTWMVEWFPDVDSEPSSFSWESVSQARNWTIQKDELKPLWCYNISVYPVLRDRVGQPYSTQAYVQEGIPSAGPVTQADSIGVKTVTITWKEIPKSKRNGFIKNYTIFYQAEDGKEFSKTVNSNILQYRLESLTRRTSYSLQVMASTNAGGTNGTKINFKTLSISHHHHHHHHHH

biotinylated canine IL-31 (ligand)
EC50 [1]: 0.368 µg/mL

B1: canine IL-22BP-FcB fusion protein (canine IL-22BP (IL-22RA2) with canine IgG-B Fc) (Fc fusion)
chain: TQSAYESLKPQRVHFQSRNFHNILHWQPGRACTSNGSVYFVQYKMYGQRQWKNKEDCWGILECFCDLTNETSDIQEPYYGRVRTTSAGIHSGWTMTQRFTPWWETKIDPPIINITQVNGSLLVILHAPSLPYRDQKGKNVSIENYYELLYRVFIINNSLEKEQKVYEGAHRIVEIGALAPHTGYCVVAEMYQPMLDRRSPRSEERCMELPGGGGSGGGGSPKRENGRVPRPPDCPKCPAPEMLGGPSVFIFPPKPKDTLLIARTPEVTCVVVALDPEDPEVQISWFVDGKQMQTAKTQPREEQFAGTYRVVSVLPIGHQDWLKGKQFTCKVNNKALPSPIERTISKARGQAHQPSVYVLPPSREELSKNTVSLTCLIKDFFPPDIDVEWQSNGQQEPESKYRTTPPQLDEDGSYFLYSKLSVDKSRWQRGDTFICAVMHEALHNHYTQESLSHSPG
notes: also called cIL-22BP-Fc fusion protein; canine IL-22BP-Fc fusion protein
binding result [2]: binds

B2: canine IL-22RA1-FcB fusion protein (extracellular domain of canine IL-22RA1 with canine IgG-B Fc) (Fc fusion)
chain: AEDTSDLLQYVKFQSSNFENILTWDSGLESAPDVVYSVEYKTYGKKEWLAKEGCQRITRKSCNLTTETGNHTEHYYARVTAVSAGGRSATKMTDRFSSMQQTTIKPPDVTCIPKVRSIQMIVHPTSTPIHAEDGHRLTLEDIFQDLFYRLELQVNHTYQMHLGGKQRDYEFIGLSPDTEFLGTITISVPNFFKESAPYVCRVKTLPDRTWTGGGGSGGGGSPKRENGRVPRPPDCPKCPAPEMLGGPSVFIFPPKPKDTLLIARTPEVTCVVVALDPEDPEVQISWFVDGKQMQTAKTQPREEQFAGTYRVVSVLPIGHQDWLKGKQFTCKVNNKALPSPIERTISKARGQAHQPSVYVLPPSREELSKNTVSLTCLIKDFFPPDIDVEWQSNGQQEPESKYRTTPPQLDEDGSYFLYSKLSVDKSRWQRGDTFICAVMHEALHNHYTQESLSHSPG
notes: also called cIL-22RA1-Fc fusion protein; canine IL-22RA1-Fc fusion protein
binding result [2]: binds
